Assay results taken from paper doi:10.1101/138099 (bioRxiv, 2017).
Values joined by “and” are separate entries in the source; they are usually repeats but may differ in a detail not shown here. Equal entries are not always repeated.

Assays:
[1] = molecular target: YweA_(BslA171-181), recombinant chimeric protein (Bacillus subtilis); assay: SEC + other: non-reducing SDS-PAGE
[2] = molecular target: YweA_(BslA171-181 C178A), recombinant chimeric protein (Bacillus subtilis) (UniProt P71014); assay: non-reducing SDS-PAGE
[3] = molecular target: YweA_(BslA171-181 C180A), recombinant chimeric protein (Bacillus subtilis) (UniProt P71014); assay: non-reducing SDS-PAGE
[4] = molecular target: the molecule itself; assay: cross-linking
[5] = molecular target: the molecule itself; assay: SEC + other: non-reducing SDS-PAGE

With “YweA_(BslA171-181), recombinant chimeric protein” the stoichiometry N [1] was 2.

Molecule “YweA_(BslA171-181 C178A), recombinant chimeric protein (from UniProt P71014 171-181)” has a stoichiometry N [2] of 2.

With “YweA_(BslA171-181 C180A), recombinant chimeric protein (from UniProt P71014 171-181)” the stoichiometry N [3] was 2.

B1: BslA, wild type, from the B. subtilis NCIB3610 biofilm (natural protein, UniProt P71014 29-181, looked up)
chain: AESTSTKAHTESTMRTQSTASLFATITGASKTEWSFSDIELTYRPNTLLSLGVMEFTLPSGFTANTKDTLNGNALRTTQILNNGKTVRVPLALDLLGAGEFKLKLNNKTLPAAGTYTFRAENKSLSIGNKFYAEASIDVAKRSTPPTQPCGCN
With B1 the “stoichiometry N” value [4] was 2 and 4.

B2: BslA_(C178A) produced in the B. subtilis bslA deletion strain (NRS5177) (natural protein, Bacillus subtilis, UniProt P71014 29-181, looked up)
chain: AESTSTKAHTESTMRTQSTASLFATITGASKTEWSFSDIELTYRPNTLLSLGVMEFTLPSGFTANTKDTLNGNALRTTQILNNGKTVRVPLALDLLGAGEFKLKLNNKTLPAAGTYTFRAENKSLSIGNKFYAEASIDVAKRSTPPTQPAGCN
In the case of B2, the “stoichiometry N” value [4] is reported as 2.

B3: BslA_(C180A) produced in the B. subtilis bslA deletion strain (NRS5178) (natural protein, Bacillus subtilis, UniProt P71014 29-181, looked up)
chain: AESTSTKAHTESTMRTQSTASLFATITGASKTEWSFSDIELTYRPNTLLSLGVMEFTLPSGFTANTKDTLNGNALRTTQILNNGKTVRVPLALDLLGAGEFKLKLNNKTLPAAGTYTFRAENKSLSIGNKFYAEASIDVAKRSTPPTQPCGAN
In the case of B3, the “stoichiometry N” value [4] is reported as 2.

B4: Recombinant BslA_(42-181) (domain or fragment, Bacillus subtilis, UniProt P71014 42-181, looked up)
chain: MRTQSTASLFATITGASKTEWSFSDIELTYRPNTLLSLGVMEFTLPSGFTANTKDTLNGNALRTTQILNNGKTVRVPLALDLLGAGEFKLKLNNKTLPAAGTYTFRAENKSLSIGNKFYAEASIDVAKRSTPPTQPCGCN
With B4 the “stoichiometry N” value [5] was 2 and 4.

B5: BslA_(C180A), recombinant BslA_(42-181) variant (domain or fragment, Bacillus subtilis, UniProt P71014 42-181, looked up)
chain: MRTQSTASLFATITGASKTEWSFSDIELTYRPNTLLSLGVMEFTLPSGFTANTKDTLNGNALRTTQILNNGKTVRVPLALDLLGAGEFKLKLNNKTLPAAGTYTFRAENKSLSIGNKFYAEASIDVAKRSTPPTQPCGAN
For B5, the “stoichiometry N” value [5] was 2.

B6: BslA_(C178A), recombinant BslA_(42-181) variant (domain or fragment, Bacillus subtilis, UniProt P71014 42-181, looked up)
chain: MRTQSTASLFATITGASKTEWSFSDIELTYRPNTLLSLGVMEFTLPSGFTANTKDTLNGNALRTTQILNNGKTVRVPLALDLLGAGEFKLKLNNKTLPAAGTYTFRAENKSLSIGNKFYAEASIDVAKRSTPPTQPAGCN
B6 was tested, and the “stoichiometry N” value [5] was 2.
